In patent US12630600B2 (MEDIMMUNE LIMITED, priority 2022, dated 2026):
Starred links: 1 amine or outer side, 2 acyl side, 3 side chain; linkers in the order of their positions; H or OH if unused. Non-standard residues stand in square brackets, D forms with d. Groups on a side chain read outwards from the residue. No end group written: not given here. *: point of attachment. C20 diacid = O=C(O)CCCCCCCCCCCCCCCCCCC(=O)*; C18 diacid = O=C(O)CCCCCCCCCCCCCCCCC(=O)*; γGlu = O=C(O)[C@H](CCC(=O)[*:2])N[*:1]; αMeF = C[C@](N)(Cc1ccccc1)C(=O)O; AEEA = NCCOCCOCC(=O)O; Aib = CC(C)(N)C(=O)O

Legend:
human glucagon receptor = human glucagon receptor (human, UniProt P47871); assay: cell-based or functional assay
human GLP-1 receptor = human GLP-1 receptor (human, UniProt P43220); assay: cell-based or functional assay

Binder | cAMP production, hGluc-R EC50 (pM) (human glucagon receptor) | cAMP production, hGLP-1R EC50 (pM) (human GLP-1 receptor)
H[Aib]QGTFTSDVSK[αMeF]LDSK([AEEA-AEEA-γGlu-C18 diacid])RA[Aib]DFVQWLL[Aib]T-OH (N-terminus assumed; SMILES CC(C)C[C@H](NC(=O)[C@H](Cc1c[nH]c2ccccc12)NC(=O)[C@H](CCC(N)=O)NC(=O)[C@@H](NC(=O)[C@H](Cc1ccccc1)NC(=O)[C@H](CC(=O)O)NC(=O)C(C)(C)NC(=O)[C@H](C)NC(=O)[C@H](CCCNC(=N)N)NC(=O)[C@H](CCCCNC(=O)COCCOCCNC(=O)COCCOCCNC(=O)CC[C@H](NC(=O)CCCCCCCCCCCCCCCCC(=O)O)C(=O)O)NC(=O)[C@H](CO)NC(=O)[C@H](CC(=O)O)NC(=O)[C@H](CC(C)C)NC(=O)[C@](C)(Cc1ccccc1)NC(=O)[C@H](CCCCN)NC(=O)[C@H](CO)NC(=O)[C@@H](NC(=O)[C@H](CC(=O)O)NC(=O)[C@H](CO)NC(=O)[C@@H](NC(=O)[C@H](Cc1ccccc1)NC(=O)[C@@H](NC(=O)CNC(=O)[C@H](CCC(N)=O)NC(=O)C(C)(C)NC(=O)[C@@H](N)Cc1c[nH]cn1)[C@@H](C)O)[C@@H](C)O)C(C)C)C(C)C)C(=O)N[C@@H](CC(C)C)C(=O)NC(C)(C)C(=O)N[C@H](C(=O)O)[C@@H](C)O) [Peptide 29] | 629 | 107
H[Aib]HGS[αMeF]TSDVSK[αMeF]LDSK([AEEA-AEEA-γGlu-γGlu-C20 diacid])AAQD[αMeF]VQ[Aib]IANT-NH2 [Peptide 25] | 1310 | 726
HSQGS[αMeF]TSDVSK[αMeF]LDSK([AEEA-AEEA-γGlu-C20 diacid])AAQD[αMeF]VQWIANT-NH2 (N-terminus assumed; SMILES CC[C@H](C)[C@H](NC(=O)[C@H](Cc1c[nH]c2ccccc12)NC(=O)[C@H](CCC(N)=O)NC(=O)[C@@H](NC(=O)[C@](C)(Cc1ccccc1)NC(=O)[C@H](CC(=O)O)NC(=O)[C@H](CCC(N)=O)NC(=O)[C@H](C)NC(=O)[C@H](C)NC(=O)[C@H](CCCCNC(=O)COCCOCCNC(=O)COCCOCCNC(=O)CC[C@H](NC(=O)CCCCCCCCCCCCCCCCCCC(=O)O)C(=O)O)NC(=O)[C@H](CO)NC(=O)[C@H](CC(=O)O)NC(=O)[C@H](CC(C)C)NC(=O)[C@](C)(Cc1ccccc1)NC(=O)[C@H](CCCCN)NC(=O)[C@H](CO)NC(=O)[C@@H](NC(=O)[C@H](CC(=O)O)NC(=O)[C@H](CO)NC(=O)[C@@H](NC(=O)[C@](C)(Cc1ccccc1)NC(=O)[C@H](CO)NC(=O)CNC(=O)[C@H](CCC(N)=O)NC(=O)[C@H](CO)NC(=O)[C@@H](N)Cc1c[nH]cn1)[C@@H](C)O)C(C)C)C(C)C)C(=O)N[C@@H](C)C(=O)N[C@@H](CC(N)=O)C(=O)N[C@H](C(N)=O)[C@@H](C)O) [Peptide 2] | 4190 | 1280
H[Aib]HGS[αMeF]TSDVSK[αMeF]LDSK([AEEA-AEEA-γGlu-γGlu-C18 diacid])AARD[αMeF]VQ[Aib]IANT-NH2 (N-terminus assumed; SMILES CC[C@H](C)[C@H](NC(=O)C(C)(C)NC(=O)[C@H](CCC(N)=O)NC(=O)[C@@H](NC(=O)[C@](C)(Cc1ccccc1)NC(=O)[C@H](CC(=O)O)NC(=O)[C@H](CCCNC(=N)N)NC(=O)[C@H](C)NC(=O)[C@H](C)NC(=O)[C@H](CCCCNC(=O)COCCOCCNC(=O)COCCOCCNC(=O)CC[C@H](NC(=O)CC[C@H](NC(=O)CCCCCCCCCCCCCCCCC(=O)O)C(=O)O)C(=O)O)NC(=O)[C@H](CO)NC(=O)[C@H](CC(=O)O)NC(=O)[C@H](CC(C)C)NC(=O)[C@](C)(Cc1ccccc1)NC(=O)[C@H](CCCCN)NC(=O)[C@H](CO)NC(=O)[C@@H](NC(=O)[C@H](CC(=O)O)NC(=O)[C@H](CO)NC(=O)[C@@H](NC(=O)[C@](C)(Cc1ccccc1)NC(=O)[C@H](CO)NC(=O)CNC(=O)[C@H](Cc1c[nH]cn1)NC(=O)C(C)(C)NC(=O)[C@@H](N)Cc1c[nH]cn1)[C@@H](C)O)C(C)C)C(C)C)C(=O)N[C@@H](C)C(=O)N[C@@H](CC(N)=O)C(=O)N[C@H](C(N)=O)[C@@H](C)O) [Peptide 19] | 133 | 38.3

Next, values leading:

cAMP production, hGluc-R EC50 (pM) (human glucagon receptor) | cAMP production, hGLP-1R EC50 (pM) (human GLP-1 receptor) | Binder
321 | 266 | H[Aib]HGS[αMeF]TSDVSK[αMeF]LDSK([AEEA-AEEA-γGlu-C18 diacid])AAQD[αMeF]VESIANT-NH2 (N-terminus assumed; SMILES CC[C@H](C)[C@H](NC(=O)[C@H](CO)NC(=O)[C@H](CCC(=O)O)NC(=O)[C@@H](NC(=O)[C@](C)(Cc1ccccc1)NC(=O)[C@H](CC(=O)O)NC(=O)[C@H](CCC(N)=O)NC(=O)[C@H](C)NC(=O)[C@H](C)NC(=O)[C@H](CCCCNC(=O)COCCOCCNC(=O)COCCOCCNC(=O)CC[C@H](NC(=O)CCCCCCCCCCCCCCCCC(=O)O)C(=O)O)NC(=O)[C@H](CO)NC(=O)[C@H](CC(=O)O)NC(=O)[C@H](CC(C)C)NC(=O)[C@](C)(Cc1ccccc1)NC(=O)[C@H](CCCCN)NC(=O)[C@H](CO)NC(=O)[C@@H](NC(=O)[C@H](CC(=O)O)NC(=O)[C@H](CO)NC(=O)[C@@H](NC(=O)[C@](C)(Cc1ccccc1)NC(=O)[C@H](CO)NC(=O)CNC(=O)[C@H](Cc1c[nH]cn1)NC(=O)C(C)(C)NC(=O)[C@@H](N)Cc1c[nH]cn1)[C@@H](C)O)C(C)C)C(C)C)C(=O)N[C@@H](C)C(=O)N[C@@H](CC(N)=O)C(=O)N[C@H](C(N)=O)[C@@H](C)O) [Peptide 23]
2720 | 1230 | H[Aib]HGS[αMeF]TSDVSK[αMeF]LDSK([AEEA-AEEA-γGlu-γGlu-C20 diacid])AAQD[αMeF]VESIANT-NH2 (N-terminus assumed; SMILES CC[C@H](C)[C@H](NC(=O)[C@H](CO)NC(=O)[C@H](CCC(=O)O)NC(=O)[C@@H](NC(=O)[C@](C)(Cc1ccccc1)NC(=O)[C@H](CC(=O)O)NC(=O)[C@H](CCC(N)=O)NC(=O)[C@H](C)NC(=O)[C@H](C)NC(=O)[C@H](CCCCNC(=O)COCCOCCNC(=O)COCCOCCNC(=O)CC[C@H](NC(=O)CC[C@H](NC(=O)CCCCCCCCCCCCCCCCCCC(=O)O)C(=O)O)C(=O)O)NC(=O)[C@H](CO)NC(=O)[C@H](CC(=O)O)NC(=O)[C@H](CC(C)C)NC(=O)[C@](C)(Cc1ccccc1)NC(=O)[C@H](CCCCN)NC(=O)[C@H](CO)NC(=O)[C@@H](NC(=O)[C@H](CC(=O)O)NC(=O)[C@H](CO)NC(=O)[C@@H](NC(=O)[C@](C)(Cc1ccccc1)NC(=O)[C@H](CO)NC(=O)CNC(=O)[C@H](Cc1c[nH]cn1)NC(=O)C(C)(C)NC(=O)[C@@H](N)Cc1c[nH]cn1)[C@@H](C)O)C(C)C)C(C)C)C(=O)N[C@@H](C)C(=O)N[C@@H](CC(N)=O)C(=O)N[C@H](C(N)=O)[C@@H](C)O) [Peptide 22]
101 | 82.8 | H[Aib]HGS[αMeF]TSDVSK[αMeF]LDSK([AEEA-AEEA-γGlu-C18 diacid])AAQD[αMeF]VQ[Aib]IANT-NH2 (N-terminus assumed; SMILES CC[C@H](C)[C@H](NC(=O)C(C)(C)NC(=O)[C@H](CCC(N)=O)NC(=O)[C@@H](NC(=O)[C@](C)(Cc1ccccc1)NC(=O)[C@H](CC(=O)O)NC(=O)[C@H](CCC(N)=O)NC(=O)[C@H](C)NC(=O)[C@H](C)NC(=O)[C@H](CCCCNC(=O)COCCOCCNC(=O)COCCOCCNC(=O)CC[C@H](NC(=O)CCCCCCCCCCCCCCCCC(=O)O)C(=O)O)NC(=O)[C@H](CO)NC(=O)[C@H](CC(=O)O)NC(=O)[C@H](CC(C)C)NC(=O)[C@](C)(Cc1ccccc1)NC(=O)[C@H](CCCCN)NC(=O)[C@H](CO)NC(=O)[C@@H](NC(=O)[C@H](CC(=O)O)NC(=O)[C@H](CO)NC(=O)[C@@H](NC(=O)[C@](C)(Cc1ccccc1)NC(=O)[C@H](CO)NC(=O)CNC(=O)[C@H](Cc1c[nH]cn1)NC(=O)C(C)(C)NC(=O)[C@@H](N)Cc1c[nH]cn1)[C@@H](C)O)C(C)C)C(C)C)C(=O)N[C@@H](C)C(=O)N[C@@H](CC(N)=O)C(=O)N[C@H](C(N)=O)[C@@H](C)O) [Peptide 24]
68.8 | 378 | H[Aib]HGS[αMeF]TSDVSK[αMeF]LDSK([γGlu-C18 diacid])AAQD[αMeF]VESIANT-NH2 (N-terminus assumed; SMILES CC[C@H](C)[C@H](NC(=O)[C@H](CO)NC(=O)[C@H](CCC(=O)O)NC(=O)[C@@H](NC(=O)[C@](C)(Cc1ccccc1)NC(=O)[C@H](CC(=O)O)NC(=O)[C@H](CCC(N)=O)NC(=O)[C@H](C)NC(=O)[C@H](C)NC(=O)[C@H](CCCCNC(=O)CC[C@H](NC(=O)CCCCCCCCCCCCCCCCC(=O)O)C(=O)O)NC(=O)[C@H](CO)NC(=O)[C@H](CC(=O)O)NC(=O)[C@H](CC(C)C)NC(=O)[C@](C)(Cc1ccccc1)NC(=O)[C@H](CCCCN)NC(=O)[C@H](CO)NC(=O)[C@@H](NC(=O)[C@H](CC(=O)O)NC(=O)[C@H](CO)NC(=O)[C@@H](NC(=O)[C@](C)(Cc1ccccc1)NC(=O)[C@H](CO)NC(=O)CNC(=O)[C@H](Cc1c[nH]cn1)NC(=O)C(C)(C)NC(=O)[C@@H](N)Cc1c[nH]cn1)[C@@H](C)O)C(C)C)C(C)C)C(=O)N[C@@H](C)C(=O)N[C@@H](CC(N)=O)C(=O)N[C@H](C(N)=O)[C@@H](C)O) [Peptide 21]
